Data from the supplement of paper PMC11246515.
± gives the standard deviation of the averaged measurements.

Test: total protein half-life in vivo (active degradation + dilution); higher = more stable protein
[1] = E. coli NCM3722 delta-clpP delta-lon delta-hslV, growth: N-lim chemostat, doubling time 6 h
[2] = E. coli NCM3722 delta-clpP, growth: N-lim chemostat, doubling time 6 h
[3] = E. coli NCM3722 delta-hslV, growth: N-lim chemostat, doubling time 6 h
[4] = E. coli NCM3722 delta-lon, growth: N-lim chemostat, doubling time 6 h
[5] = E. coli NCM3722 delta-smpB, growth: N-lim chemostat, doubling time 6 h
[6] = wild type E. coli NCM3722, growth: C-lim chemostat, doubling time 3 h
[7] = wild type E. coli NCM3722, growth: C-lim chemostat, doubling time 6 h
[8] = wild type E. coli NCM3722, growth: C-lim chemostat, doubling time 12 h
[9] = wild type E. coli NCM3722, growth: N-lim chemostat, doubling time 6 h
[10] = wild type E. coli NCM3722, growth: N-lim chemostat, doubling time 12 h
[11] = wild type E. coli NCM3722, growth: P-lim chemostat, doubling time 6 h
[12] = wild type E. coli NCM3722, growth: P-lim chemostat, doubling time 12 h

| Sequence | total protein half-life in vivo [1] [h] | total protein half-life in vivo [2] [h] | total protein half-life in vivo [3] [h] | total protein half-life in vivo [4] [h] | total protein half-life in vivo [5] [h] | total protein half-life in vivo [6] [h] | total protein half-life in vivo [7] [h] | total protein half-life in vivo [8] [h] | total protein half-life in vivo [9] [h] | total protein half-life in vivo [10] [h] | total protein half-life in vivo [11] [h] | total protein half-life in vivo [12] [h] |
| --- | --- | --- | --- | --- | --- | --- | --- | --- | --- | --- | --- | --- |
| MQRGIVWVVDDDSSIRWVLERALAGAGLTCTTFENGAEVLEALASKTPDVLLSDIRMPGMDGLALLKQIKQRHPMLPVIIMTAHSDLDAAVSAYQQGAFDYLPKPFDIDEAVALVERAISHYQEQQQPRNVQLNGPTTDIIGEAPAMQDVFRIIGRLSRSSISVLINGESGTGKELVAHALHRHSPRAKAPFIALNMAAIPKDLIESELFGHEKGAFTGANTIRQGRFEQADGGTLFLDEIGDMPLDVQTRLLRVLADGQFYRVGGYAPVKVDVRIIAATHQNLEQRVQEGKFREDLFHRLNVIRVHLPPLRERREDIPRLARHFLQVAARELGVEAKLLHPETEAALTRLAWPGNVRQLENTCRWLTVMAAGQEVLIQDLPGELFESTVAESTSQMQPDSWATLLAQWADRALRSGHQNLLSEAQPELERTLLTTALRHTQGHKQEAARLLGWGRNTLTRKLKELGME [P0AFB8] | 5.64 ± 0.8 | 5.18 ± 0.39 | 4.86 ± 0.35 | 5.263 ± 0.02 | 4.32 ± 0.052 | 2.678 ± 0.0012 | 4.85 ± 0.1 | 8.034 ± 0.033 | 4.72 ± 0.12 | 7.57 ± 0.25 | 4.22 ± 0.085 | 7.58 ± 0.097 |
| MQILFNDQAMQCAAGQTVHELLEQLDQRQAGAALAINQQIVPREQWAQHIVQDGDQILLFQVIAGG | 2.75 |  |  |  |  |  |  | 4.47 | 1.3 |  | 3.24 | 5.24 ± 0.77 |
| MTAPSQVLKIRRPDDWHLHLRDGDMLKTVVPYTSEIYGRAIVMPNLAPPVTTVEAAVAYRQRILDAVPAGHDFTPLMTCYLTDSLDPNELERGFNEGVFTAAKLYPANATTNSSHGVTSIDAIMPVLERMEKIGMPLLVHGEVTHADIDIFDREARFIESVMEPLRQRLTALKVVFEHITTKDAADYVRDGNERLAATITPQHLMFNRNHMLVGGVRPHLYCLPILKRNIHQQALRELVASGFNRVFLGTDSAPHARHRKESSCGCAGCFNAPTALGSYATVFEEMNALQHFEAFCSVNGPQFYGLPVNDTFIELVREEQQVAESIALTDDTLVPFLAGETVRWSVKQ | 5.58 ± 0.26 | 5.17 ± 0.099 | 5.194 ± 0.04 | 5.46 ± 0.25 | 4.78 ± 0.2 | 2.85 ± 0.047 | 5.64 ± 0.76 | 8.19 ± 2.8 | 5.06 ± 0.61 | 9.47 ± 0.78 | 6.06 ± 0.17 | 13.6 ± 0.86 |
| MKILIVEDDTLLLQGLILAAQTEGYACDSVTTARMAEQSLEAGHYSLVVLDLGLPDEDGLHFLARIRQKKYTLPVLILTARDTLTDKIAGLDVGADDYLVKPFALEELHARIRALLRRHNNQGESELIVGNLTLNMGRRQVWMGGEELILTPKEYALLSRLMLKAGSPVHREILYNDIYNWDNEPSTNTLEVHIHNLRDKVGKARIRTVRGFGYMLVANEEN | 6.35 ± 0.76 | 5.04 ± 0.91 | 4.7 ± 0.14 | 4.71 ± 0.34 | 3.93 ± 0.24 |  | 5.33 ± 0.18 | 9.36 ± 0.56 | 5.55 ± 1.2 | 7.56 ± 0.27 | 4.89 ± 0.26 | 9.22 ± 0.027 |
| MSSNFRHQLLSLSLLVGIAAPWAAFAQAPISSVGSGSVEDRVTQLERISNAHSQLLTQLQQQLSDNQSDIDSLRGQIQENQYQLNQVVERQKQILLQIDSLSSGGAAAQSTSGDQSGAAASTTPTADAGTANAGAPVKSGNANTDYNAAIALVQDKSRQDDAMVAFQNFIKNYPDSTYLPNANYWLGQLNYNKGKKDDAAYYFASVVKNYPKSPKAADAMFKVGVIMQDKGDTAKAKAVYQQVISKYPGTDGAKQAQKRLNAM | 5.65 ± 0.36 |  | 5.26 ± 0.17 | 5.96 ± 0.72 | 5.27 ± 1.5 |  | 6.4 ± 1 | 8.8 ± 1.9 | 5.61 ± 0.1 | 11.3 ± 0.16 | 5.31 ± 1.9 | 11.6 ± 0.52 |
| MRLCDRDIEAWLDEGRLSINPRPPVERINGATVDVRLGNKFRTFRGHTAAFIDLSGPKDEVSAALDRVMSDEIVLDEGEAFYLHPGELALAVTLESVTLPADLVGWLDGRSSLARLGLMVHVTAHRIDPGWSGCIVLEFYNSGKLPLALRPGMLIGALSFEPLSGPAVRPYNRREDAKYRNQQGAVASRIDKD | 3.92 ± 0.54 | 3.36 ± 0.25 | 3.062 ± 0.021 | 4.56 ± 1.7 | 3.14 ± 0.53 | 2.852 ± 0.011 | 4.81 ± 0.3 | 7.69 ± 0.16 | 3.17 ± 0.19 | 4.96 ± 0.52 | 5.25 ± 0.11 | 10.4 ± 0.19 |
| MKLRDSLAENKSIRLQAEAETWQEAVKIGVDLLVAADVVEPRYYQAILDGVEQFGPYFVIAPGLAMPHGRPEEGVKKTGFSLVTLKKPLEFNHDDNDPVDILITMAAVDANTHQEVGIMQIVNLFEDEENFDRLRACRTEQEVLDLIDRTNAAA |  |  |  |  | 3.07 | 3.32 ± 0.71 | 3.97 ± 0.22 | 7.31 | 3.02 |  | 4.94 ± 0.59 | 7.637 ± 0.049 |
